Measured values: patent US12662541B2, “Antibody-drug conjugates against the receptor tyrosine kinase EphA5” (Rutgers, The State University of New Jersey, priority 2021, dated 2026)

Tests used:
rhEphA5 antigen [1] = target: T1, rhEphA5 antigen (Homo sapiens, UniProt P54756); assay: KD (M)
T1 construct: purchased R and D systems 3036-A5
Protocol: (§1) Table printed on a drawing sheet, FIG. 13
(§2) Head of the field: KD (M)
(§3) The patent's description of the figure: FIG. 13 is a table illustrating the single cycle kinetic parameters of chimeric (VH0/VK0) and humanized 11C12 variants (tested as cell culture supernatants) binding to rhEphA5 antigen as determined using the Biacore T200. The relative KD was calculated by dividing the KD of the humanized variant by that of the VH0/VK0 (top row) assayed in the same experiment. The variants marked with ‘*’ have KD values that are within two-fold of, or are better than, the chimeric antibody. The chimeric and selected variants marked in ‘#’ were identified as the main leads for purification. […]
(§4) Where the first naming reader finds the target: description_of_the_figure: humanized 11C12 variants (tested as cell culture supernatants) binding to rhEphA5 antigen as determined using the Biacore T200

EphA5 antigen [2] = target: T2, EphA5 antigen (Homo sapiens, UniProt P54756); assay: kd (1/s)
T2 construct: purchased R and D systems 3036-A5
Protocol: (§5) Table printed on a drawing sheet, FIG. 19
(§6) Head of the field: kd (1/s)
(§7) The patent's description of the figure: FIG. 19 is a table illustrating the Multi-cycle kinetic parameters of chimeric (VH0/VK0) and humanized variants (tested as purified proteins) binding to EphA5 antigen as determined using the Biacore T200. The relative KD was calculated by dividing the KD of the humanized variant by that of the VH0VK0 (first row) assayed in the same experiment. […]
(§8) Where the first naming reader finds the target: description_of_the_figure: humanized variants (tested as purified proteins) binding to EphA5 antigen as determined using the Biacore T200

EphA5 antigen [3] = target: T2, EphA5 antigen; assay: ka (1/Ms)
Protocol: as §5
(§9) Head of the field: ka (1/Ms)
as §7, §8

EphA5 antigen [4] = target: T2, EphA5 antigen; assay: KD (M)
Protocol: as §5, §2, §7, §8

rhEphA5 antigen [5] = target: T1, rhEphA5 antigen; assay: ka (1/Ms)
Protocol: as §1, §9, §3, §4

rhEphA5 antigen [6] = target: T1, rhEphA5 antigen; assay: kd (1/s)
Protocol: as §1, §6, §3, §4

[7] = Thermal ramp stability (UNcle biostability platform, Sypro Orange and SLS); type: physicochemical
Description: Thermal ramp stability experiments (Tm and Tagg) are well established methods for ranking proteins and formulations for stability. A protein's denaturation profile provides information about its thermal stability and represents a structural ‘fingerprint’ for assessing structural and formulation buffer modifications. A widely used measure of the thermal structural stability of a protein is the temperature at which it unfolds from the native state to a denatured state. For many proteins, this unfolding process occurs over a narrow temperature range and the mid-point of this transition is termed ‘melting temperature’ or ‘Tm’. To determine the melting temperature of a protein, UNcle measures the fluorescence of Sypro Orange (which binds to exposed hydrophobic regions of proteins) as the protein undergoes conformational changes.
Samples for each variant were formulated in PBS and Sypro Orange at a final concentration of 1 mg/mL. […] Samples were subjected to a thermal ramp from 25-95° C., with a ramp rate of 0.3° C./minute and excitation at 473 nm. Full emission spectra were collected from 250-720 nm, and the area under the curve between 510-680 nm was used to calculate the inflection points of the transition curves (Tonset and Tm). Monitoring of static light scattering (SLS) at 473 nm allowed the detection of protein aggregation, and Tagg (onset of aggregation) was calculated from the resulting SLS profiles. Thermal stability values determined lie in a broad range from 57.9 to 69.6° C. (Tm1), 55.1 to 65.2° C. (Tonset) and 65.6 to 70.2° C. (Tagg) with the humanized leads generally showing improved profiles when compared to the chimeric antibody. […] All humanized antibodies appear to have a higher Tm1, Tonset and Tagg compared to the chimeric antibody.

rhEphA5 antigen [8] = target: T1, rhEphA5 antigen; assay: Multi-cycle kinetic analysis (Biacore T200) of purified antibodies; type: binding
Protocol: In order to assess the binding of the six lead humanized variants to rhEphA5 antigen, multi-cycle kinetic analysis (FIG. 68) was performed on purified material. Kinetic experiments were performed at 25° C. on a Biacore T200 running Biacore T200 Control software V2.0.1 and Evaluation software V3.0 (GE Healthcare, Uppsala, Sweden).
HBS-P+ (GE Healthcare, Uppsala, Sweden), supplemented with 1% BSA w/v (Sigma, Dorset, UK) was used as running buffer as well as for ligand and analyte dilutions. Purified lead antibodies were diluted to 0.5 μg/mL in running buffer and at the start of each cycle, loaded onto Fc2, Fc3 and Fc4 of an anti-human IgG CMS sensor chip (GE Healthcare, Little Chalfont, UK). Antibodies were captured at a flow rate of 10 μl/min to give an immobilization level (RL) of 50 RU. The surface was then allowed to stabilize.
Multi-cycle kinetic data was obtained using recombinant EphA5 as the analytes injected at a flow rate of 30 μl/min to minimize any potential mass transfer effects. A five point, three-fold dilution range from 1.11 nM to 270 nM of EphA5 was prepared in running buffer. For each concentration, the association phases were monitored for 210 seconds and the dissociation phase was measured for 900 seconds. Regeneration of the sensor chip surface was conducted between cycles using two injections of 3 M MgCl2. […]
Target sequence in this assay (P54756 25-573 limits assumed): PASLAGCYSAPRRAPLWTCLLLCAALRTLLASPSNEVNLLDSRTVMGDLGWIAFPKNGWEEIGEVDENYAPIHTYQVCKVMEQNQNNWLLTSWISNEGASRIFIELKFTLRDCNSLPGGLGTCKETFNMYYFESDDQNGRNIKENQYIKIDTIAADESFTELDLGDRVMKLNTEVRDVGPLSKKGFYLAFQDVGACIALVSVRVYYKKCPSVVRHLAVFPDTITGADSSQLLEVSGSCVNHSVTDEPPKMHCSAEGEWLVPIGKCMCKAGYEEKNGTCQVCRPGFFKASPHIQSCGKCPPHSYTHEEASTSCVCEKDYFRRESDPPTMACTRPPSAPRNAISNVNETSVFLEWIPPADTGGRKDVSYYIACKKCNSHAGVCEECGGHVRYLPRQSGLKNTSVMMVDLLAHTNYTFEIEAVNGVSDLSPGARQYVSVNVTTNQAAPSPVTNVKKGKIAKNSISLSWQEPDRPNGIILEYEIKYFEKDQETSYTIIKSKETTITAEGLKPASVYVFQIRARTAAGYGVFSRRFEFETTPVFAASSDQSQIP

H226 cells (EphA5−) = assay: Flow cytometry cell binding, H226 negative control cells; type: cell-based, human; conditions: from 10 μg/ml, three-fold three point dilution
Protocol: (§10) A H460 cell line stably expressing EphA5 (provided by Rutgers) was used, alongside H226 cells as a negative control, to test for antibody binding in a flow cytometry assay. The cell lines were first assessed for target expression using 10 μg/ml of the murine 11C12 provided by Rutgers) and MolgG1 non-binging control (Biolegend, California, US). Goat anti-mouse Alexa Fluor 647 (Thermo Fisher, Loughborough, UK) was used for antibody detection.
(§11) For cell binding assays, both cell lines were resuspended in FACS buffer (PBS+1% BSA+0.1% sodium azide) and seeded in 96 well U bottom plates at 1×105 (100 μl) cells per well. The chimeric and six purified humanized variants were tested in the assay alongside the 11C12 murine positive control, MolgG1 and HulgG1 non-binding controls. Samples were prepared at a starting concentration of 10 μg/ml in FACS buffer and underwent a four-fold seven point serial dilution for testing with H460 cells and a three-fold three point serial dilution for the H226 cells. […] Median fluorescence intensity (MFI) was measured using an Attune N×T Flow Cytometer (Thermo Fisher, Loughborough, UK) and 10,000 gated events were acquired per sample. For data analysis, live cell populations were gated based on the forward and side scatter dot plot allowing the Alexa Fluor 647 MFI values to be measured in the RL1 channel.

[9] = target: T3, H460 cell line stably expressing EphA5 (Homo sapiens, UniProt P54756); assay: Flow cytometry cell binding, H460 cells; type: cell-based; conditions: from 10 μg/ml, four-fold seven point dilution
T3 construct: endogenous in cells; host or cells: H460 human lung carcinoma cells (provided by Rutgers)
T3 sequence (P54756 25-1037): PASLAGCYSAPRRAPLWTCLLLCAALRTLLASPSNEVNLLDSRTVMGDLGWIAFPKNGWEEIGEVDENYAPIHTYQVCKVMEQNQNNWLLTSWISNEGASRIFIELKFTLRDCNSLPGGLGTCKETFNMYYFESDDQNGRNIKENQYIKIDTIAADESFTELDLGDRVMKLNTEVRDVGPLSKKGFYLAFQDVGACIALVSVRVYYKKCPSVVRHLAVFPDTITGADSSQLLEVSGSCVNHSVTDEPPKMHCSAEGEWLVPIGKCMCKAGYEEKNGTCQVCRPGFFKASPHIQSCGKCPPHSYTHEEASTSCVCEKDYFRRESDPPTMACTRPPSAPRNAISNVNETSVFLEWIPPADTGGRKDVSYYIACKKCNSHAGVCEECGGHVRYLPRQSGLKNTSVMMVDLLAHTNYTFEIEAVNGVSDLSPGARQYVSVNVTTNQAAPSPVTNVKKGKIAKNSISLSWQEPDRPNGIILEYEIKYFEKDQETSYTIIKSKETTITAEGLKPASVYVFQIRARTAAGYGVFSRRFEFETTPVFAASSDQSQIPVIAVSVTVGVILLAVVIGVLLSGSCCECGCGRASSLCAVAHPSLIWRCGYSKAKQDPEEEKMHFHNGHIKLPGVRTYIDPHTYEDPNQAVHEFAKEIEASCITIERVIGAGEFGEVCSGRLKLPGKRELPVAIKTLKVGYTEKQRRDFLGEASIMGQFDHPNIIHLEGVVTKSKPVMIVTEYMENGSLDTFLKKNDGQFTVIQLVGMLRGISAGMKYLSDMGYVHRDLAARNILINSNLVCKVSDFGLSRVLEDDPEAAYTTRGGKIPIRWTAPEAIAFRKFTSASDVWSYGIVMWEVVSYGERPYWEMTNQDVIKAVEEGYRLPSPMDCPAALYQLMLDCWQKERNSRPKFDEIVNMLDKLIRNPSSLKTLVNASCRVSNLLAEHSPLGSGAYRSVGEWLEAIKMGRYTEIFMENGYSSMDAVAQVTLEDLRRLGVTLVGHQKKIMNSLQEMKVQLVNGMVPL
Protocol: as §10, §11

B1: VH3/VK4: humanized anti-EphA5 antibody, VH SEQ ID NO:4, VL SEQ ID NO:12; lead variant (antibody, V domains shown)
VH: EVQLVESGGGLVQPGGSLKLSCAASGFTFSTFGIHWVRQAPGKGLEWVAYISGASTTIYYADTVKGRFTISRDNSKNTLYLQMNSLRSEDTAMYYCARYGTSFPYGLDYWGQGTLVTVSS
VL: DIVMTQSPDSLAVSLGERATINCKSSQSVDYDGDSYMNWYQQKPGKAPKLLIYGASNLESGIPDRFSGSGSGTDFTLTISRLEPEDAASYYCQQSNEDPFTFGQGTKLEIK
rhEphA5 antigen [1]
  Kd: 0.956 nM
EphA5 antigen [2]
  kd: 0.00142 s⁻¹
EphA5 antigen [3]
  ka: 1.31e+06 M⁻¹ s⁻¹
EphA5 antigen [4]
  Kd: 1.08 nM

B2: VH0/VK0: chimeric antibody with murine 11C12 variable regions (SEQ ID NO:1, 8) and human IgG1/kappa constant regions (antibody, V domains shown)
VH: EVTLKESGGGLVQPGGSRKLSCAASGFTFSTFGIHWVRQAPEKGLEWVAYISGASTTIYYADTVKGRFTISRDNPKNTLFLQMTSLRSEDTAMYYCARYGTSFPYGLDYWGQGTSVTVSS
VL: DIVMTQSPGSLAVSLGQRATISCKASQSVDYDGDSYMNWYQQKPGQPPKLLIYGASNLESGIPARFSGSGSGTDFTLNIHPVEEEDAASYYCQQSNEDPFTFGSGTKLEIK
modifications: human IgG1/kappa constant regions
rhEphA5 antigen [5]
  ka: 1.15e-06 M⁻¹ s⁻¹
rhEphA5 antigen [6]
  kd: 0.00153 s⁻¹
[7]
  Average Tm2 (° C.): 65.83 °C
  Average Tonset (° C.): 55.1 °C
  transitions detected in thermal unfolding: two transitions (Tm1 and Tm2)
[7]; 1 mg/mL in PBS, ramp 25-95° C.
  Average Tm1 (° C.): 57.9 °C
[7]; SLS at 473 nm
  Average Tagg 473 (° C.): 65.6 °C
[7]; single replicate
  Tm2 (° C.): 65.83 °C
rhEphA5 antigen [8]; 1:1 model fit
  RMAX: 47.8
rhEphA5 antigen [8]; 1:1 model, binding to EphA5
  kd: 0.0015 s⁻¹

B3: VH5/VK4: humanized anti-EphA5 antibody, VH SEQ ID NO:6, VL SEQ ID NO:12; lead variant (antibody, V domains shown)
VH: EVQLVESGGGLVQPGGSLKLSCAASGFTFSTFGIHWVRQAPGKGLEWVAYISGASTTIYYADSVKGRFTISRDNSKNTLYLQMNSLRAEDTAVYYCARYGTSFPYGLDYWGQGTLVTVSS
VL: DIVMTQSPDSLAVSLGERATINCKSSQSVDYDGDSYMNWYQQKPGKAPKLLIYGASNLESGIPDRFSGSGSGTDFTLTISRLEPEDAASYYCQQSNEDPFTFGQGTKLEIK
rhEphA5 antigen [5]
  ka: 1.35e-06 M⁻¹ s⁻¹
EphA5 antigen [2]
  kd: 0.00128 s⁻¹
rhEphA5 antigen [6]
  kd: 0.00141 s⁻¹
[7]
  Tagg ranking among the leads (SLS profiles): highest Tagg values
EphA5 antigen [3]
  ka: 1.23e+06 M⁻¹ s⁻¹

B4: 11C12: anti-human EphA5 monoclonal murine antibody, parental and positive control (antibody, V domains shown)
VH: EVTLKESGGGLVQPGGSRKLSCAASGFTFSTFGIHWVRQAPEKGLEWVAYISGASTTIYYADTVKGRFTISRDNPKNTLFLQMTSLRSEDTAMYYCARYGTSFPYGLDYWGQGTSVTVSS
VL: DIVMTQSPGSLAVSLGQRATISCKASQSVDYDGDSYMNWYQQKPGQPPKLLIYGASNLESGIPARFSGSGSGTDFTLNIHPVEEEDAASYYCQQSNEDPFTFGSGTKLEIK
H226 cells (EphA5−)
  binding to H226 (EphA5 negative) cells: no binding
[9]
  binding to H460 (EphA5+) cells, MFI dose response: bound to the positive cell line in a concentration dependent manner
